Measurements published in a protein production outcome set (Wang et al. 2014).

Assay: label from the status in PepcDB records

Row | Sequence | protein production
1 | MSLKIIDFRLRPPAMGFLNARIYTRPDIRNRFTRQLGFEPAPSAEEKSLELMFEEMAAAGIEQGVCVGRNSSVLGSVSNADVAAVAKAYPDKFHPVGSIEAATRKEAMAQMQEILDLGIRIVNLEPGVWATPMHVDDRRLYPLYAFCEDNGIPVIMMTGGNAGPDITYTNPEHIDRVLGDFPDLTVVSSHGNWPWVQEIIHVAFRRPNLYLSPDMYLYNLPGHADFIQAANSFLADRMLFGTAYPMCPLKEYTEWFLTLPIKPDAMEKILHGNAERLLAQAGREGHHHHHH | not failed
2 | MSLKITDVDVWVVNLPLVNPFTSSFETKTGETRTVVRVRTDSGVEGWGETMWGAPVAAIVRRMAPDLIGTSPFALEAFHRKQHMVPFFYGYLGYAAIAAVDVACWDAMGKATGQSVTDLLGGAVRDEVPITALITRADAPGATPADLPKAMAEHAVRVVEEGGFDAVKLKGTTDCAGDVAILRAVREALPGVNLRVDPNAAWSVPDSVRAGIALEELDLEYLEDPCVGIEGMAQVKAKVRIPLCTNMCVVRFEDFAPAMRLNAVDVIHGDVYKWGGIAATKALAAHCETFGLGMNLHSGGELGIATAAHLAVVSSTPVLSRAIDSMYYLHADDIIEPLHLENGRLRVPSGPGLGVSVDEDKLRHYAGVNERDGDLTGEGHHHHHH | not failed
3 | MSLKLTPEAAGTFAIAPTPFHDDGKIDDVSIDRLTDFYAEVGCEGVTVLGILGEAPKLDAAEAEAVATRFIKRAKSMQVIVGVSAPGFAAMRRLARLSMDAGAAGVMIAPPPSLRTDEQITTYFRQATEAIGDDVPWVLQDYPLTLSVVMTPKVIRQIVMDSASCVMLKHEDWPGLEKITTLRGFQKDGSLRPLSILCGNGGLFLDFEMERGADGAMTGYCFPDMLVDVVKLSKAGQRDLAHNLFDAHLPLIRYEHQQGVGLSVRKYVLKKRGLLSSSAQRKPGASLTDTAREEVDYLLSRLARVEGHHHHHH | not failed
4 | MSLKNKFKNFFSLDDEEYEYEYIETDREEIPEEHESKDRTAYQSKAAGKQNVVSLQSVQKSSKVVLSEPRVYAEAQEIADHIKNRRAVVVNLQRIQHDQAKRIVDFLSGTVYALGGDIQRIGADIFLCTPENVDVSGTISELIEEEHQRW | failed
5 | MSLKNMADLSYVNIFTRDIVAMSAFYQQVFGFQEIESIRSPIFRGLDTGKSCIGFNAHEAYELMQLAQFSETSGIKFLLNFDVDTKEAVDKLVPVAIAAGATLIKAPYETYYHWYQAVLLDPERNVFRINNVLEGHHHHHH | not failed
6 | MSLKSLASIENWPVPTAAAGVVRADGTVLGTHGPAAHRFPLASVTKPLAAYAALVAYEEGAIELDEPAGPPGATVRHLLAHTSGLAFDEHRVTAPPGDRRLYSNAGFEQLGDHIAKAAEMPFAEYARQAVLEPLGMTATSLAGSPAKDGVSTVDDLLRFAAEVQAPRLLDPRTVAEAMTVQYPGTKGVLPGYGHQNPNDWGLGFEIRDGKSPHWTGAASSPRTFGHFGQSGTFLWIDPDAALACVSLTDRAFGPWAVEAWPPFTDGVLAEVRG | failed
7 | MSLKVQGYANVVTLPNVTGRVIIVGDIHGCRAQLEDLLRAVSFKQGSDTLVAVGDLVNKGPDSFGVVRLLKRLGAYSVLGNHDAKLLKLVKKLGKKECLKGRDAKSSLAPLAQSIPTDVETYLSQLPHIIRIPAHNVMVAHAGLHPQRPVDRQYEDEVTTMRNLIEKEQEATGGVTLTATEETNDGGKPWASMWRGPETVVFGHDARRGLQEQYKPLAIGLDSRCVYGGRLSAAVFPGGCIISVPGWNGASAAAEGHHHHHH | not failed
8 | MSLKYKLIVLDLDGTLTNSKKEISSRNRETLIRIQEQGIRLVLASGRPTYGIVPLANELRMNEFGGFILSYNGGEIINWESKEMMYENVLPNEVVPVLYECARTNHLSILTYDGAEIVTENSLDPYVQKEAFLNKMAIRETNDFLTDITLPVAKCLIVGDAGKLIPVESELCIRLQGKINVFRSEPYFLELVPQGIDKALSLSVLLENIGMTREEVIAIGDGYNDLSMIKFAGMGVAMGNAQEPVKKAADYITLTNDEDGVAEAIERIFNVEGHHHHHH | not failed
9 | MSLLIRELETNDLDNFPEIDDSFIVNARLMLSLSKVNRRIEYTVEDVPSYEKSYLQNDNEELVYNEYINKPNQIIYIALLHNQIIGFIVLKKNWNNYAYIEDITVDKKYRTLGVGKRLIAQAKQWAKEGNMPGIMLETQNNNVAACKFYEKCGFVIGGFDFLVYKGLNMTSDEVAIYWYLHFDS | failed
10 | MSLLKNSSYILTLLSLFGFLLTWQRSAFSLFFLIPIFLTLFWEFFLFLKLRKNIIKEATLIKGSLFYRISMGDFYLYIFSFFLAIFGLVSLFLNFLNLEKIDFVFIFIILPLLMIFLKKELHLQFIDNAYNDFRIVVIASFFTALFYAFYGLFFTYNELLNLELFSRKIIAYKSASFVYFDFLSEFLHFVSNLKFFIFSYFGYLGFRALNFIFDFFNFFMFCSLLAFVFNFVLKIKIKIIVLFLCFIMVLGNYFLKEQRNNALKSEQEQILLWMNNFNFLKDNNLSLIQKEKDLFEKDLKDLREIFKKNAFEIGIWWFSKEKEDLEKRINESLK | failed
11 | MSLLSLLIALAADRSLSAKVWQFNFYYQHYHHFFSKNFTAKQGTTASAVFIILPVIATYLLLDVIDNSVLQLLFSTVILIVCFGCTTTRKSYKSYLHSAFRGEETTTEMHHEQLLSDKNLPEMGFGQALIWLNYRYYIAIMLFFTVFGAAGAVFYRLLTTVIEHKKAKCMASAAENKAQAEVSSVDESDIESEEHHQAVHEGNVAPNIMNGCQNHHDVLFWLDWLPVRIASFGYMFVGHFSKAMPVWLESLFDSQKPTHQVLIDVAEKSEDLLVNENDCTAEPCLLVRLAKRNVLLVLAVISILTLSGLLN | failed
12 | MSLMIKVEDMMTRHPHTLLRTHTLNDAKHLMEALDIRHVPIVDANKKLLGIVSQRDLLAAQESSLQRSAQGDSLAFETPLFEVMHTDVTSVAPQAGLKESAIYMQKHKIGCLPVVAKDVLVGIITDSDFVTIAINLLELQEESEPDELDEEQEGHHHHHH | not failed
13 | MSLNGITKYVEKLTFFNIQSGKQVEFNRDEKVILSNVPFIQQLPELDRGCEVTSLAMMLQYAGITVDKMKLANEIKKVDFMNDGVRGNPNEGFVGNIYTFSESGYGVYHGPLFQLAKKYLPNKAVDLTGKSIEELYKSVKAGQPVVIITNATFAPLDEDEFTTWETNNGDVSITYNEHCVVLIGYDQESVYIRDPLKDSLDVKVPREKFEQAWVQMGSQAISYVKRSKEGHHHHHH | not failed
14 | MSLNGNGSIELKGTVEEVWSKLMDPSILSKCIMGCKSLELIGEDKYKADLQIGIAAVKGKYDAIIEVTDIKPPYHYKLLVNGEGGPGFVNAEGVIDLTPINDECTQLTYTYSAEVGGKVAAIGQRMLGGVAKLLISDFFKKIQKEIAKSKQEASEGHHHHHH | not failed
15 | MSLNKQDGENTLQHEKSSSFGYWCSPSPEQLERLSLKQLAAVSNFVIGRRGYGCITFQHDVDLTAFTKSFREELFGKIVIFRSSKTVEVYPDEATKPMIGHGLNVPAIITLENVYPVDKKTKKPMKDTTKFAEFQVFDRKLRSMREMNYISYNPFGGTWTFKVNHFEGHHHHHH | not failed
16 | MSLNRRELLERISEYQFACIELNLYLDNNPRDKKALDSYNRYCDKFTQAVCDYESKYGALTNFGYESSEYPWSWISEPWPWDKSFYKLEHHHHHH | not failed
17 | MSLNRVFIVDDDTLTCNLLKTIVEPIFGNVEAFQHPRAFLTLSLNKQDIIILDLMMPDMDGIEVIRHLAEHKSPASLILISGYDSGVLHSAETLALSCGLNVINTFTKPINTEVLTCFLTSLSNRQAEGHHHHHH | not failed
18 | MSLNSEAKSRIACDIDFDRDGRQAGYARAPLSRNNSGWGTVEIPITVVKNGSGPTVLLTGGVHGDEYEGQIAISDLARRLRPEEVQGRVIMLPAVNMPAIQSDTRLSPVDGRDINRCFPGDPRGTFSQMLAHFLDSVILPMADISVDMHTAGHSYDSTPSTNMHYLADPALRARTLAAAEAFGAPHNVVFGGVDEGSTFTSCVERRGIVSLGTELGGWGRVNIEGVRIGKRGILNVLKHMGVIEGTPETAQRGGAAGTRHMMVREADAYVMAPRTGLFEPTHYVGEEVRTGETAGWIHFVEDVDTAPLELLYRRDGIVWFGAGPGRVTRGDAVAVVMEDYNDTWPQEGHHHHHH | not failed
19 | MSLPPILTSQIGPDSIELRLLVAADLEYFNGHFPEQAVLPGVTQLDWAVRLGCEHFGYSAAVANLEVLKFQQLILPGQEVTLVISHNATKEKLTFAYSDGDHRYASGRISFASKQDDGLEHHHHHH | failed
20 | MSLPPSRPETLSIPEALHRAHAHWSAGQAAQAELLCQRVLAAWPGQADALHLLGLMAHAYGHLDLAIAHLRQACLAPRAPAAYSSNLAEMYRQKGLLAEAEDAARRAVAMDPALVSGWNNLGIVLQEAGKFAESLDCLERVILLQPDGAQAHNNLANTLRRLERLERAESHYRQALELDPAYAEAHSNLAFLLSAQGRHDEAAAAAQHAIELSPRLVDAYLNLAEAEMGRHRHEAALRVLDTLSTFAPQHPAALTARANVLKRVERLDEALAVARQAVVLAPRSAEAHHALAMALQTLGQTDEALPHFEQAARLPGAVAEEALVGRATLLMEAGRRDAARAAFDQALEQFPGSVQALAGRADARTFTAGDPDIAALEACLAEGERRSLRDRISAHFALGKAYLDLQDPARAFHHLDAGNRQKRSTFTYDGAASRRWMERIAEAFPPERHDPLHATGEPSALPVFIVGMPRSGTTLIEQIVSSHPQVMGAGELSALRLVVEGSGLFPDGMQRLAGEARGALFRQLGQAYLSRVAPLAQGRARLVDKMPSNFLYARLIPLILPGARIIHARRDPVDTCLSCYTKLFAGEQQFAYDQAELGALYRGYARLMAHWRAVLPPGCFIEVDYEAVVDDLEGEARRLIDFLDLPWNPACLHFHDNRRVVRTASVNQVRQPIYTTSKGRWQAYADYLGPLLEALGVEAP | failed
21 | MSLQLDEYLRQLAPSMTQWRRDFHLHAESGWLEFRTASKVADILDGLGYQLALGRDVIDADSRMGLPDEETLARAFERAREQGAPERWLPAFEGGFAGVVATLDTGRPGPTLAFRVDMDALDLNEQHDDSHRPHRDHFASCNAGMMHACGHDGHTAIGLGLAHVLKQYAAQLNGVIKLIFQPAEEGTRGARAMVAAGVVDDVDYFTAIHIGTGVPAGTVVCGGDNFMATTKFDVQFSGVAAHAGGKPEDGRNALLAAAQAALGLHAIPPHSAGASRVNVGVMQAGTGRNVVPSSALLKVETRGESEAINQYVFERAQHVVAGAAAMYEARYELRMMGAATASAPSPAWVDYLREQAARVPGVQQAVDRIAAPAGSEDATLMMARVQARGGLASYMIFGTELSAGHHNEKFDFDESVMAVAVETLARVALNFPWQRGVEGHHHHHH | not failed
22 | MSLQRFTNRTIVVAGAGRDIGRACAIRFAQEGANVVLTYNGAAEGAATAVAEIEKLGRSALAIKADLTNAAEVEAAISAAADKFGEIHGLVHVAGGLIARKTIAEMDEAFWHQVLDVNLTSLFLTAKTALPKMAKGGAIVTFSSQAGRDGGGPGALAYATSKGAVMTFTRGLAKEVGPKIRVNAVCPGMISTTFHDTFTKPEVRERVAGATSLKREGSSEDVAGLVAFLASDDAAYVTGACYDINGGVLFSEGHHHHHH | not failed
23 | MSLQRLLQHSSNGNLADFCAGPAYSSYSTLTGSLTMDDNRRIQMLADTVATLPRGRKQLALTRSSSLSDFSWSQRKLVTVEKQDNETFGFEIQSYRPQNQNACSSEMFTLICKIQEDSPAHCAGLQAGDVLANINGVSTEGFTYKQVVDLIRSSGNLLTIETLNGTMILKRTELEAKLQVLKQTLKQKWVEYRSLQLQEHRLLHGDAANCPSLENMDLDELSLFGPLPGPGPALVDRNRLSSESSCKSWLSSMTMDSEDGYQTCVSEDSSRGAFSRQTSTDDECFIPKEGDDFLRRSSSRRNRSISNTSSGSMSPLWEGNLSSMFGTLPRKSRKGSVRKQLLKFIPGLHRAVEEEESRF | not failed
24 | MSLQSQPIALELIVRNHPGVMTHICGLFARRAFNVDGILCLPMKNSDKSRIWLLVQKDERLMQMVSQVEKLEDVKEVRFSDDLRVFEQMESYLN | not failed
